Experimental findings from article PMC12418098, “A single helicase-binding domain of DnaG couples with hexameric helicase DnaB in Bacillus stearothermophilus” are described below.

Values joined by “and” are separate entries in the source; they are usually repeats but may differ in a detail not shown here. Identical values can stand only once.

Data set [1] concerns the target helicase DnaB hexamer from Bacillus stearothermophilus (Bacillus stearothermophilus) (UniProt Q9X4C9). Put plainly: ITC; DnaB hexamer without ssDNA titrated by DnaG(HBD); 25°C; 25 mmol/L Tris pH 8.0, 100 mmol/L NaCl.
For data set [2] the target is unchanged. Nature of the data set: ITC; DnaG(HBD) (200 μmol/L, needle) titrated into the pre-formed, gel-filtered DnaB6/dT16 complex (10 μmol/L, cell); 25°C; 25 mmol/L Tris pH 8.0, 100 mmol/L NaCl; one-set-of-sites model. On the technique in general: ITC needs no label: the signal is the heat of the interaction.
Data set [3] has as its target T1, DnaB helicase;DnaG(HBD) (Bacillus stearothermophilus;Bacillus …, UniProt Q9X4C9;Q9X4D0 1-454;455-597, |).
T1 sequence 1: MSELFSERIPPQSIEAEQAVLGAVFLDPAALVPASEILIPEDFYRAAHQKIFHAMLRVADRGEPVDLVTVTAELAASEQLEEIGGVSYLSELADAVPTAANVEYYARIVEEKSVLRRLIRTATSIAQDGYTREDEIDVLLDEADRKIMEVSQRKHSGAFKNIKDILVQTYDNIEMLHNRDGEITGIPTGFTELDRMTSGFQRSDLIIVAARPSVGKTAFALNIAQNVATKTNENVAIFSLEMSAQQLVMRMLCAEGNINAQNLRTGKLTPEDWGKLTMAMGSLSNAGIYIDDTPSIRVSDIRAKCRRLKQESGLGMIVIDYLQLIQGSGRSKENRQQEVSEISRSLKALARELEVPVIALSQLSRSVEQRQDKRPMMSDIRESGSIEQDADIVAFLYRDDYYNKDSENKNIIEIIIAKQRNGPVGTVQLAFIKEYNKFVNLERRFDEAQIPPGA
T1 sequence 2: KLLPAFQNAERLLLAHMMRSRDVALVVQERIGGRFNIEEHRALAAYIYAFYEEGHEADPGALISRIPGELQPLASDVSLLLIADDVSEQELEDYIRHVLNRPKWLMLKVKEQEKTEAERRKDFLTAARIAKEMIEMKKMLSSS
Nature of the data set: EMSA; DnaG(HBD) 1-15 pmol added to DnaB/dT16; 5 mM MgCl2, 2 mM ATP; EMSA: 25 mM Tris pH 8.0, 100 mM NaCl, 10% glycerol, 1 mM DTT, 5 mM MgCl2, 2 mM ATP, 4 C, native PAGE (6% in Methods, 8% in legend); ITC: 25 mM Tris pH 8.0, 100. Particulars: protein: recombinant;recombinant; tags: GST tag removed with PreScission (pGEX-6p-1);GST tag removed with PreScission (pGEX-6p-1); chain copies: 6;1; label: 5'-6-FAM; single strand. For orientation: A gel shift assay detects complexes by their altered migration in electrophoresis.

For data set [4], the target named is helicase-binding domain of primase DnaG from Bacillus stearothermophilus (Bacillus stearothermophilus) (UniProt Q9X4D0). Put plainly: ITC; reverse titration: pre-formed DnaB6/dT16 complex (200 μmol/L, needle) titrated into DnaG(HBD) (10 μmol/L, cell); 25°C; 25 mmol/L Tris pH 8.0, 100 mmol/L NaCl; one-set-of-sites model.
In a further data set the target is T2, DnaB helicase (Bacillus stearothermophilus, UniProt Q9X4C9 1-454).
T2 sequence: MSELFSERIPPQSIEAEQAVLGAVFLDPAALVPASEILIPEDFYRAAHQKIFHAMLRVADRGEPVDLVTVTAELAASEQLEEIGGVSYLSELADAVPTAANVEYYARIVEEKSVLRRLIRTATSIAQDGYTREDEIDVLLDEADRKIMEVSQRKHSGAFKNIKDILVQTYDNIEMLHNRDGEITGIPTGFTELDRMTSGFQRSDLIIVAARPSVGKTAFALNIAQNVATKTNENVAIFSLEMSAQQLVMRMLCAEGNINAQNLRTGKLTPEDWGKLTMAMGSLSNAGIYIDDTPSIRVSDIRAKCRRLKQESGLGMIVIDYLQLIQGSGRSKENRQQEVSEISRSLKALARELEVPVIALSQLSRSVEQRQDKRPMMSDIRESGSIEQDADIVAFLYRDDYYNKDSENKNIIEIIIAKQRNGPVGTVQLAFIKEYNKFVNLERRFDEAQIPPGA
Put plainly: gel filtration with SDS-PAGE and SYBR Green II staining; binary complex; EMSA: 25 mM Tris pH 8.0, 100 mM NaCl, 10% glycerol, 1 mM DTT, 5 mM MgCl2, 2 mM ATP, 4 C, native PAGE (6% in Methods, 8% in legend); ITC: 25 mM Tris pH 8.0, 100. The following applies: protein: recombinant; tags: GST tag removed with PreScission (pGEX-6p-1); chain copies: 6; label: none stated; single strand. For orientation: In gel filtration, larger molecules generally elute earlier.

The target in data set [5] is T1, DnaB helicase;DnaG(HBD). Put plainly: gel filtration with SDS-PAGE and native PAGE; ternary complex, single peak; ITC Kd of Table 1 (about 1 uM) is HBD binding to preformed DnaB6/dT16, a protein-protein contact, so not listed as a value; EMSA: 25 mM Tris pH 8.0, 100 mM NaCl, 10% glycerol, 1 mM DTT, 5 mM MgCl2, 2 mM ATP, 4 C, native PAGE (6% in Methods, 8% in legend); ITC: 25 mM Tris pH 8.0, 100. The following applies: protein: recombinant;recombinant; tags: GST tag removed with PreScission (pGEX-6p-1);GST tag removed with PreScission (pGEX-6p-1); chain copies: 6;1; label: none stated; single strand.

As usually defined, the Kd is the equilibrium constant for the complex coming apart. Read a high Kd as lower affinity. The term stoichiometry N denotes the number of molecules, sites or subunits per partner or assembly. “helicase-binding domain of primase DnaG from Bacillus stearothermophilus (from UniProt Q9X4D0 1-597) (domain or fragment)” returned a stoichiometry N (DnaG(HBD) per DnaB hexamer) in data set [1] of 3. Further, in data set [2], the Kd was 960 nM and 1130 nM and 1070 nM; the dH was -22.8 kcal/mol and -22.7 kcal/mol and -22.2 kcal/mol; the stoichiometry N is 1.09 and 1.02 and 0.981.
For TTTTTTTTTTTTTTTT (ssDNA) [dT16 (6-FAM)], in the data set with DnaB helicase;DnaG(HBD) [3], the binding result is “binds”.

B1: helicase DnaB hexamer from Bacillus stearothermophilus (enzyme)
chain: MSELFSERIPPQSIEAEQAVLGAVFLDPAALVPASEILIPEDFYRAAHQKIFHAMLRVADRGEPVDLVTVTAELAASEQLEEIGGVSYLSELADAVPTAANVEYYARIVEEKSVLRRLIRTATSIAQDGYTREDEIDVLLDEADRKIMEVSQRKHSGAFKNIKDILVQTYDNIEMLHNRDGEITGIPTGFTELDRMTSGFQRSDLIIVAARPSVGKTAFALNIAQNVATKTNENVAIFSLEMSAQQLVMRMLCAEGNINAQNLRTGKLTPEDWGKLTMAMGSLSNAGIYIDDTPSIRVSDIRAKCRRLKQESGLGMIVIDYLQLIQGSGRSKENRQQEVSEISRSLKALARELEVPVIALSQLSRSVEQRQDKRPMMSDIRESGSIEQDADIVAFLYRDDYYNKDSENKNIIEIIIAKQRNGPVGTVQLAFIKEYNKFVNLERRFDEAQIPPGA
As to B1, in data set [4], the Kd is 1010 nM and 1110 nM and 890 nM; the dH was -11.2 kcal/mol and -9.18 kcal/mol and -9.75 kcal/mol; the stoichiometry N was 0.987 and 1.08 and 1.05.
For TTTTTTTTTTTTTTTT (ssDNA) [dT16], the binding result with DnaB helicase and in the data set with DnaB helicase;DnaG(HBD) [5] was “binds” in each case.
